# Measurements published in patent US8398971B2, “Methods, compounds, and compositions for treatment and prophylaxis in the respiratory tract” (NexBio, Inc., priority 2009, dated 2013).
# Like-named read-outs stand apart in the source and are kept apart here.
# B1: DAS181: fusion protein comprising a catalytic domain of a sialidase, and an anchoring domain (SEQ ID NO:21) (protein)
# chain: MGDHPQATPAPAPDASTELPASMSQAQHLAANTATDNYRIPAITTAPNGDLLISYDERPKDNGNGGSDAPNPNHIVQRRSTDGGKTWSAPTYIHQGTETGKKVGYSDPSYVVDHQTGTIFNFHVKSYDQGWGGSRGGTDPENRGIIQAEVSTSTDNGWTWTHRTITADITKDKPWTARFAASGQGIQIQHGPHAGRLVQQYTIRTAGGAVQAVSVYSDDHGKTWQAGTPIGTGMDENKVVELSDGSLMLNSRASDGSGFRKVAHSTDGGQTWSEPVSDKNLPDSVDNAQIIRAFPNAAPDDPRAKVLLLSHSPNPRPWSRDRGTISMSCDDGASWTTSKVFHEPFVGYTTIAVQSDGSIGLLSEDAHNGADYGGIWYRNFTMNWLGEQCGQKPAKRKKKGGKNGKNRRNRKKKNP
# Key:
# [1] = test system: muscarinic receptor mediated airway resistance; experiment: airway resistance (Penh) in naive mice, methacholine challenged; type: in vivo, BALB/c mice; details: for dosage level sufficient for reduced airway responsiveness: intranasal once daily for three days
# [2] = test system: muscarinic receptor mediated airway resistance; type: in vivo, BALB/c mice; details: Example 5, 5, 10 and 20 mg/ml carbachol
molecule,measurement,setting,value
B1,difference in airway resistance between dose groups,"[1]; Example 3, 0.06, 0.1, 0.6 mg/kg",No difference was observed between the different dose groups
same,airway resistance vs PBS,"[1]; Example 3, 0.06, 0.1 or 0.6 mg/kg intranasal once daily for three days, 48 mg/ml Mch",significantly reduced airway resistance
same,dosage level sufficient for reduced airway responsiveness,[1]; Example 3,≤ 0.06 mg/kg
same,airway resistance vs PBS control,"[1]; Example 4, 0.6 mg/kg once daily for three days, 6, 12, 24 and 48 mg/ml Mch",significantly reduced airway resistance
same,airway resistance vs baseline,"[1]; Example 4, 0.6 mg/kg, 3 and 6 mg/ml methacholine",did not increase airway resistance above baseline
same,airway resistance vs baseline,"[1]; Example 4, 0.6 mg/kg, 12, 24 and 48 mg/ml methacholine",increased airway resistance above baseline
same,airway resistance in response to Mch challenge vs PBS,"[1]; Example 7, 0.6 mg/kg, one day of treatment",no difference in airway resistance
same,airway resistance vs PBS,"[1]; Example 7, 0.6 mg/kg, three days of treatment, 24 and 48 mg/ml Mch",significantly reduced airway resistance
same,airway resistance vs PBS,"[1]; Example 7, 0.6 mg/kg, two days of treatment, 3, 6 and 48 mg/ml methacholine","not at 3, 6 and 48 mg/ml"
same,airway resistance vs PBS,"[1]; Example 7, 0.6 mg/kg, two days of treatment, 12 and 24 mg/ml methacholine",appears to reduce airway resistance
same,difference in airway resistance between dose groups,"[1]; Example 8, 0.0008, 0.004, 0.02, 0.1 mg/kg",No difference was observed between the different dose groups
same,airway resistance vs PBS,"[1]; Example 8, 0.0008, 0.004, 0.02 or 0.1 mg/kg once daily for three days, 24 and 48 mg/ml Mch",significantly reduced airway resistance
same,dosage level sufficient for reduced airway responsiveness,[1]; Example 8,≤ 0.0008 mg/kg
same,average percentage change Penh (increase in airway resistance over baseline),"[1]; Example 9, 10 ng/kg once daily three days, 24 mg/ml Mch, PBS 550-560%",525-530%
same,average percentage change Penh (increase in airway resistance over baseline),"[1]; Example 9, 0.1 μg/kg, 24 mg/ml Mch",450%
same,average percentage change Penh (increase in airway resistance over baseline),"[1]; Example 9, 1 μg/kg, 24 mg/ml Mch",525%
same,average percentage change Penh (increase in airway resistance over baseline),"[1]; Example 9, 10 μg/kg, 24 mg/ml Mch",225%
same,average percentage change Penh (increase in airway resistance over baseline),"[1]; Example 9, 0.1 mg/kg, 24 mg/ml Mch",200%
same,airway resistance vs PBS,"[1]; Example 9, all doses 10 ng/kg to 0.1 mg/kg, 24 mg/ml Mch",reduced airway resistance
same,airway resistance in response to Mch,"[1]; Example 9, dose levels of 0.01 or 0.1 mg/kg",significantly reduced airway resistance
same,airway resistance vs PBS,[2]; 0.6 mg/kg once daily for three days,significantly reduced airway resistance
same,airway resistance vs baseline,[2]; 0.6 mg/kg,increased airway resistance above baseline
